Values quoted from earlier work in patent US20050074809A1, “System and method for systematic prediction of ligand/receptor activity” (priority 2001, published 2005).

Key:
HLA-DRB1*0101 molecule = HLA-DRB1*0101 molecule (Homo sapiens, UniProt P01903+P01911, A100R/D57E/F55L/F60I/F76Y/I96L/L162R/M171V/P40L/Q125E/R42F/V115G/Y59C); conditions: result in words; reported binding data
HLA-A*0201 molecule = HLA-A*0201 molecule (Homo sapiens, UniProt P04439, D140Y/D185E/D98H/E176V/E277Q/G131W/G231S/I119V/I121R/I166T/I218V/L300P/L318F/N151K/N90K/P208A/P217A/Q86G/Q94H/R138H/R169H/T345S); conditions: result in words; Kawakami and Rosenberg 1996

Row | Sequence | binding to HLA-DR1(0101) (HLA-DRB1*0101) (HLA-DRB1*0101 molecule) | binding to HLA-A*0201 (HLA-A*0201 molecule)
1 | FAGKNTDLE | does not bind | –
2 | PKPPKPVSKMRMATPLLMQALPMG [Peptide of class II invariant chain (SwissProt Acc. P04233)] | binds | –
3 | PLWGPRALV [Peptide of the mage-3 antigen (SWISSPROT:MAG3_HUMAN)] | – | binds
